In patent US12479895B2, “C-terminal CDNF and MANF fragments, pharmaceutical compositions comprising same and uses thereof” (MyNeuroCure Oy, priority 2018, dated 2025):

Key:
dopamine neurons = test: Survival of TH-positive dopamine neurons in dissociated midbrain floor cultures; format: cell-based, mouse; settings: added to the culture medium, 5 days, TH-positive neurons counted
Method in brief: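 Dissociated E13.5 NMRI mouse midbrain floor neurons grown five days in DMEM/F12 with N2, with polypeptides at a range of concentrations, GDNF (100 ng/ml), or nothing. TH-immunopositive neurons were counted by imaging. Values are a percentage of GDNF-maintained TH-positive neurons, as mean ± SEM from at least three independent cultures.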

[1] = tested on: mouse beta cell proliferation; test: Beta cell proliferation assay; format: cell-based; settings: mouse islets cultured in vitro for 5 days
Protocol: Islets from female, virgin 8 weeks old C57bl6Rcc mice were isolated. Islets were recovered o/n in growth medium and the next day equal numbers of islets/well (70/well) were treated for 5 days with placental lactogen (PL 500 ng/ml), C-MANF, or MANF. Half of the medium was changed daily to fresh medium with growth factors. Edu, a nucleoside analog alternatively to BrdU (Click-iT® Edu proliferation kit, Invitrogen) was added 48 hrs prior to islet harvesting. Islets were broken with trypsin and centrifuged onto glass slides in cytocentrifuge. Cells were fixed after cytospins and proliferating cells stained with Click-iT AlexaFluor azide color reagent, followed by insulin staining (guinea-pig 1:200, Abcam, Cambridge, UK) o/n at +4° C. to detect beta cells. Cells were washed and stained with secondary antibodies conjugated with Alexa Fluor® 488 (1:400, Molecular Probes, Life Technologies, CA, USA). […] Twelve images (10× magnification) were acquired with Fluorescence Zeiss Axiolmager M2 482 epifluorescence microscope equipped with 40×/Plan-Apochromat/0.95 Corr M27 and 63×/Plan-Apochromat/1.40 Oil/M27 and 483 AxioCam HRm camera using AxioVision4 software and analysed by Image Pro Plus software (Media Cybernetics, Bethesda, MD, USA) to quantify number of DAPI-positive nuclei. The relative numbers of proliferating beta cells were quantified and compared to wells of three to five repeats/treatment.

[2] = rat, in vivo, sc
Protocol: CDNF, C-CDNF and C-MANF were iodinated with ^125I-Na using the lactoperoxidase method. The protein in question was dissolved in 30 μl of 0.25 M phosphate buffer, pH 7.5, and mixed with ^125I-Na (1 mCi/2.8 μl; 1 mCi=37 mBq; GE Healthcare). The reaction was started by adding lactoperoxidase 10 μl of 50 μg/ml and 0.05% H2O2. The mixture was incubated at room temperature for 20 min and the reaction was stopped by adding 3 volumes of 0.1 M phosphate buffer, pH 7.5, containing 0.1 M NaI, 0.42 M NaCl, and then 25 μl of 2.5% BSA was added. Free iodine and iodinated protein were separated by gel filtration on Sephadex G-25 columns (PM10; GE Healthcare). For column equilibrium and elution, 0.1 M phosphate buffer, pH 7.5, with 1% BSA was used. The iodinated growth factors were sometimes concentrated by using YM-10 Centricon columns (Millipore). The specific activity of ^125I-labeled CDNF, C-CDNF and C-MANF was measured on the Wizard 3 1480 Automatic Gamma Counter (Perkin Elmer, Wallac) and was about 10^8 cpm/μg protein. The labelled protein were kept at 4° C. and used within 3 weeks after labelling.
^125I-CDNF, ^125I C-CDNF or ^125I C-MANF (all proteins at 10^6 cpm in 10 μl) were injected subcutaneously to adult male Wistar rats. […] Radioactivity was analyzed in different brain regions by gamma counter. […] The differences between groups were analyzed ANOVA followed by Tukey-Kramers post hoc test.

B1: KYDKQIDLSTVDLKKLRVKELKKILDDWGETCKGCAEKSDYIRKINELMPKYAPKAASARTDL (protein, listed as Homo sapiens)
chain: KYDKQIDLSTVDLKKLRVKELKKILDDWGETCKGCAEKSDYIRKINELMPKYAPKAASARTDL
protection of dopaminergic neurons in culture (result in words) (dopamine neurons): protects
protection of dopaminergic neurons in culture (result in words) (dopamine neurons; listed as C-terminal MANF fragment): potently protected
mouse beta cell proliferation (incorporation of Click EdU) [1]: stimulates
blood-brain-barrier penetration [2]: capable of penetrating
